Consider nine molecules from patent publication US20120238493A1 (INDIANA UNIVERSITY RESEARCH AND TECHNOLOGY, published 2012).

Experiment in all cases: cell-based or functional assay
Test [1] concerns the target T1, GIP receptor (UniProt P48546 22-466, limits assumed).
T1 sequence (looked up): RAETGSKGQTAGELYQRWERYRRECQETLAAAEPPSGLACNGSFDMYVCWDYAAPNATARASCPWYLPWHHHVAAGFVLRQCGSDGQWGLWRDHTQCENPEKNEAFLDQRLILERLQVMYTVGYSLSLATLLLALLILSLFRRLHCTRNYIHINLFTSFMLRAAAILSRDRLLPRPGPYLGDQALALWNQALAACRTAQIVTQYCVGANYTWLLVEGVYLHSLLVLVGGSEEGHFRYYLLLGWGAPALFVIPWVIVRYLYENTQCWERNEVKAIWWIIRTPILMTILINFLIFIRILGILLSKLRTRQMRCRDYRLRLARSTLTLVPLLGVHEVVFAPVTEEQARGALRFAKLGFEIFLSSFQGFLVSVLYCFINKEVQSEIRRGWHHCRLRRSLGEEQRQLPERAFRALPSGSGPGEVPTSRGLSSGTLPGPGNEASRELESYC

Test [2] has as its target T1, GIP receptor. The source holds these as a separate data set.
For test [3], the target named is T1, GIP receptor. The source holds these as a separate data set.
The target in test [4] is T2, GLP-1 receptor (UniProt P43220 24-463, limits assumed).
Test [5] has as its target T3, glucagon receptor (UniProt P47871 26-477, limits assumed).
Test [6] addresses T1, GIP receptor. The source holds these as a separate data set.
Test [7] has as its target T2, GLP-1 receptor. This is another data set of the same source.
In test [8] the target is T3, glucagon receptor. This is another data set of the same source.
Test [9] deals with T1, GIP receptor. The source holds these as a separate data set.
For test [10], the target named is T2, GLP-1 receptor. This is another data set of the same source.
In test [11] the target is T3, glucagon receptor. The source holds these as a separate data set.
For test [12], the target named is T1, GIP receptor. The source holds these as a separate data set.
In test [13] the target is T2, GLP-1 receptor. This is another data set of the same source.
The target in test [14] is T3, glucagon receptor. The source holds these as a separate data set.
For test [15], the target named is T1, GIP receptor. The source holds these as a separate data set.
Test [16] concerns the target T2, GLP-1 receptor. This is another data set of the same source.
For test [17], the target named is T3, glucagon receptor. The source holds these as a separate data set.
For test [18], the target named is T1, GIP receptor. The source holds these as a separate data set.
The target of test [19] is T2, GLP-1 receptor. The source holds these as a separate data set.
Test [20] has as its target T3, glucagon receptor. The source holds these as a separate data set.
The target of test [21] is T1, GIP receptor. The source holds these as a separate data set.
The target of test [22] is T2, GLP-1 receptor. The source holds these as a separate data set.
The target of test [23] is T3, glucagon receptor. This is another data set of the same source.

Read-outs that look alike come from different tables or passages of the source. *1 amine or outer side, *2 acyl side, *3 side chain or, on linkers, in order; H or OH if unused. Where no end group is shown, it is not given here. Side-chain parts run from the residue outwards. [ ]: non-standard residue; d: D form. The star is where a group is joined. γGlu = O=C(O)[C@H](CCC(=O)[*:2])N[*:1]; Palmitoyl = CCCCCCCCCCCCCCCC(=O)*; Aib = CC(C)(N)C(=O)O

T3 sequence (P47871 26-477 limits assumed): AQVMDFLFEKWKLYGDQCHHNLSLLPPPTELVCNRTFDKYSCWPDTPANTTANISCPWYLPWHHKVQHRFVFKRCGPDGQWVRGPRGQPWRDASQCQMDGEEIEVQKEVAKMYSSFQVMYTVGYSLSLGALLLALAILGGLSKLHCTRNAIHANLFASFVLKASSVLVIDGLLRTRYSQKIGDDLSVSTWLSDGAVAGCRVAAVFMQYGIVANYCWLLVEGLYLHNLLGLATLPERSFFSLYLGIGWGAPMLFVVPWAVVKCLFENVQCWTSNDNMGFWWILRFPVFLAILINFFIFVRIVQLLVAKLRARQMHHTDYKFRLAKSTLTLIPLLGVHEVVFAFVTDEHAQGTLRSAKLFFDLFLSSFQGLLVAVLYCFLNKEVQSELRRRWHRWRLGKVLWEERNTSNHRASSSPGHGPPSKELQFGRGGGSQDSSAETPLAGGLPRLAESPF

For “Native GIP (SEQ ID NO: 2) (from UniProt P09681 52-93) (ligand)”, the EC50 (cAMP reporter) in test [1] was determined as 6.5 pM; in [2], 0.01 nM.

B1: Glucagon Aib2, K12(rErEC16), Aib16, amide (SEQ ID NO: 45) (peptide)
peptide: H[Aib]QGTFTSDYSKYLD[Aib]RRAQDFVQWLMNT-NH2
modifications: not fully specified (residue 12)
In the case of B1, the results for the “EC50 (cAMP reporter)” value in test [3], in test [4] and in test [5] were 0.651 nM, 0.0205 nM and 0.0425 nM, respectively.

B2: Glucagon Aib2, Aib16, amide (SEQ ID NO: 42) (peptide)
peptide: H[Aib]QGTFTSDYSKYLD[Aib]RRAQDFVQWLMNT-NH2
modifications: N-terminus assumed
SMILES: CSCC[C@H](NC(=O)[C@H](CC(C)C)NC(=O)[C@H](Cc1c[nH]c2ccccc12)NC(=O)[C@H](CCC(N)=O)NC(=O)[C@@H](NC(=O)[C@H](Cc1ccccc1)NC(=O)[C@H](CC(=O)O)NC(=O)[C@H](CCC(N)=O)NC(=O)[C@H](C)NC(=O)[C@H](CCCNC(=N)N)NC(=O)[C@H](CCCNC(=N)N)NC(=O)C(C)(C)NC(=O)[C@H](CC(=O)O)NC(=O)[C@H](CC(C)C)NC(=O)[C@H](Cc1ccc(O)cc1)NC(=O)[C@H](CCCCN)NC(=O)[C@H](CO)NC(=O)[C@H](Cc1ccc(O)cc1)NC(=O)[C@H](CC(=O)O)NC(=O)[C@H](CO)NC(=O)[C@@H](NC(=O)[C@H](Cc1ccccc1)NC(=O)[C@@H](NC(=O)CNC(=O)[C@H](CCC(N)=O)NC(=O)C(C)(C)NC(=O)[C@@H](N)Cc1c[nH]cn1)[C@@H](C)O)[C@@H](C)O)C(C)C)C(=O)N[C@@H](CC(N)=O)C(=O)N[C@H](C(N)=O)[C@@H](C)O
Regarding B2, the “EC50 (cAMP reporter)” value is 104 nM in test [3], 0.437 nM in test [4] and 0.309 nM in [5].

B3: peptide of SEQ ID NO: 89 (peptide)
peptide: H[Aib]QGTFTSDYSKYLDERAAQDFVQWLLDGGPSSGAPPPSK([γGlu-γGlu-Palmitoyl])G-NH2
modifications: not fully specified
For the molecule B3, the “EC50 (cAMP reporter)” value was 0.028 nM in [6]; 5 pM in test [7]; 6 pM in test [8]; 0.024 nM in test [9]; 2.1 pM in test [10]; 4.1 pM in [11]. In addition, the “EC50 (cAMP reporter)” value is 0.02 nM in test [12], 4 pM in test [13] and 4 pM in test [14].

B4: Analog No. 30: Aib2, K10acyl, E16, A18, L27, D28, G29 + CEX (SEQ ID NO: 28) (peptide)
peptide: H[Aib]QGTFTSDK([γGlu-Palmitoyl])SKYLDERAAQDFVQWLLDGGPSSGAPPPS-NH2
In the case of B4, the “EC50 (cAMP reporter)” value in [6] amounted to 0.004 nM; in test [7], 4 pM; in test [8], 3 pM; in test [9] it was 0.003 nM; in test [10], 2 pM; in test [11] it was 2 pM. Moreover, the “EC50 (cAMP reporter)” value in [18] is 0.003 nM; in test [19], 2 pM; in [20], 0.002 nM; in test [12], 0.002 nM; in [13], 2 pM; in [14], 2 pM. Besides, the “EC50 (cAMP, nmole)” value in test [15] was found to be 0.007 nmol; in test [16], 0.003 nmol; in test [17], 0.004 nmol. In addition, the “activity (cAMP reporter), column GIP” value in test [21] stood at 0.003. Also, the “activity (cAMP reporter), column GLP” value in [22] turned out to be 0.002. For the same molecule, in test [23], the “activity (cAMP reporter), column Glu” value was 0.002.

B5: peptide of SEQ ID NO: 171 (peptide)
peptide: H[Aib]EGTFTSDYSKYLDERAAQDFVQWLLDGGPSSGAPPPSK([γGlu-γGlu-Palmitoyl])G-NH2
In the case of B5, the “EC50 (cAMP reporter)” value in test [12] stood at 0.038 nM; in test [13] it was 5 pM; in [14], 455 pM.

B6: Glucagon Aib2, K9(rErEC16), Aib16, amide (SEQ ID NO: 43) (peptide)
peptide: H[Aib]QGTFTSKYSKYLD[Aib]RRAQDFVQWLMNT-NH2
modifications: not fully specified (residue 9)
Take B6: the “EC50 (cAMP reporter)” value in [3] was determined as 15.1 nM; in [4] it was 0.232 nM; in test [5], 1.15 nM.

B7: Analog No. 62: Aib2, E3, K10acyl, E16, Aib20, E21, L27, D28, G29 + CEX (SEQ ID NO: 38) (peptide)
peptide: H[Aib]EGTFTSDK([γGlu-C16])SKYLDERRA[Aib]EFVQWLLDGGPSSGAPPPS-NH2
Regarding B7, the “EC50 (cAMP reporter)” value in test [18] stood at 0.012 nM; in test [19], 8 pM; in [20], 0.127 nM. In addition, in test [21], the “activity (cAMP reporter), column GIP” value worked out at 0.012. The “activity (cAMP reporter), column GLP” value in test [22] was determined as 0.008. The “activity (cAMP reporter), column Glu” value in [23] was determined as 0.127.

B8: Analog No. 63: Aib2, E3, K10acyl, E16, L27, D28, G29 + CEX (SEQ ID NO: 39) (peptide)
peptide: H[Aib]EGTFTSDK([γGlu-Palmitoyl])SKYLDERAAQDFVQWLLDGGPSSGAPPPS-NH2
modifications: N-terminus assumed
SMILES: CCCCCCCCCCCCCCCC(=O)N[C@@H](CCC(=O)NCCCC[C@H](NC(=O)[C@H](CC(=O)O)NC(=O)[C@H](CO)NC(=O)[C@@H](NC(=O)[C@H](Cc1ccccc1)NC(=O)[C@@H](NC(=O)CNC(=O)[C@H](CCC(=O)O)NC(=O)C(C)(C)NC(=O)[C@@H](N)Cc1c[nH]cn1)[C@@H](C)O)[C@@H](C)O)C(=O)N[C@@H](CO)C(=O)N[C@@H](CCCCN)C(=O)N[C@@H](Cc1ccc(O)cc1)C(=O)N[C@@H](CC(C)C)C(=O)N[C@@H](CC(=O)O)C(=O)N[C@@H](CCC(=O)O)C(=O)N[C@@H](CCCNC(=N)N)C(=O)N[C@@H](C)C(=O)N[C@@H](C)C(=O)N[C@@H](CCC(N)=O)C(=O)N[C@@H](CC(=O)O)C(=O)N[C@@H](Cc1ccccc1)C(=O)N[C@H](C(=O)N[C@@H](CCC(N)=O)C(=O)N[C@@H](Cc1c[nH]c2ccccc12)C(=O)N[C@@H](CC(C)C)C(=O)N[C@@H](CC(C)C)C(=O)N[C@@H](CC(=O)O)C(=O)NCC(=O)NCC(=O)N1CCC[C@H]1C(=O)N[C@@H](CO)C(=O)N[C@@H](CO)C(=O)NCC(=O)N[C@@H](C)C(=O)N1CCC[C@H]1C(=O)N1CCC[C@H]1C(=O)N1CCC[C@H]1C(=O)N[C@@H](CO)C(N)=O)C(C)C)C(=O)O
As for B8, the “EC50 (cAMP reporter)” value in test [18] stood at 0.026 nM; in [19], 8 pM; in test [20] it was 1.28 nM. Also, the “activity (cAMP reporter), column GIP” value in test [21] was 0.026. Also, the “activity (cAMP reporter), column GLP” value in test [22] was found to be 0.008. For the same molecule, in test [23], the “activity (cAMP reporter), column Glu” value amounted to 1.28.
